We go through three molecules from publication PMC10272136, “Molecular mechanisms of Holliday junction branch migration catalyzed by an asymmetric RuvB hexamer” (Nature Communications, 2022).

One data set addresses T1, RuvA (Thermus thermophilus, UniProt Q9F1Q3 1-191).
T1 sequence: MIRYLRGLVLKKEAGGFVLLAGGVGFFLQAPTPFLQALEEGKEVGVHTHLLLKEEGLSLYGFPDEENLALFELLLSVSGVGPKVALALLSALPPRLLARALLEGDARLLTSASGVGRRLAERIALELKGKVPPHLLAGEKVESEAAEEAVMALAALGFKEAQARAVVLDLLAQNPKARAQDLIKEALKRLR
The data set is described as follows: cryo-EM structure; from RuvA-RuvB-HJ sample; RuvA tetramer binds HJ core; 20 mM Tris-HCl pH 7.5, 10 mM MgCl2, 1 mM DTT, 2 mM ATPgS, 30 min at 37 C; gel filtration in 20 mM Tris-HCl, 150 mM NaCl. The note with it: protein: recombinant; tags: N-terminal His tag (pET-28a, NdeI/XhoI); chain copies: 4; four-way junction of 4 strands, 1 copy each. (SEC sorts molecules by how far they enter the pores of the column.)

For another data set, the target named is T2, RuvB (Thermus thermophilus, UniProt Q5SL87 1-324).
T2 sequence: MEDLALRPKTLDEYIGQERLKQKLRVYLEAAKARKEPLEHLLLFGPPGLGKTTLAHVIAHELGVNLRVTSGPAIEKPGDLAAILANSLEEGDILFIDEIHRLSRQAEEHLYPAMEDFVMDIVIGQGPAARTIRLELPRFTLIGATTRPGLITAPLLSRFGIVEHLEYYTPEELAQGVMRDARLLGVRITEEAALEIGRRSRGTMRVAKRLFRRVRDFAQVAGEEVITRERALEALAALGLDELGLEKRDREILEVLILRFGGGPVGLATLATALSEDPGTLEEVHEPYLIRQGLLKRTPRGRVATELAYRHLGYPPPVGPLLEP
As to the kind of experiment: gel filtration; 2 mM ATPgS, 10 mM MgCl2; DNA:RuvB monomer 1:6; 20 mM Tris-HCl pH 7.5, 10 mM MgCl2, 1 mM DTT, 2 mM ATPgS, 30 min at 37 C; gel filtration in 20 mM Tris-HCl, 150 mM NaCl. The following applies: protein: recombinant; tags: N-terminal His tag (pET-28a, NdeI/SalI); chain copies: 6; four-way junction of 4 strands, 1 copy each.

Data set [1] deals with the molecule itself. The data set is described as follows: cryo-EM structure; RuvB mixed with annealed HJ DNA at 1:6 (DNA/RuvB monomer) in 20 mM Tris-HCl pH 7.5, 10 mM MgCl2, 1 mM DTT, 2 mM ATP-γ-S, 30 min at 37 °C; complex purified by gel filtration; two maps (hexamer 2.97 Å, C1; dodecamer 3.2 Å, C2).
Data set [2] deals with the molecule itself. As to the kind of experiment: cryo-EM structure; sample of RuvA, RuvB and HJ DNA (6:4:1 RuvB:RuvA:HJ DNA); only a RuvA-HJ DNA structure was obtained; C4 symmetry, 4.3 Å.

Values joined by “and” are separate entries in the source; they are usually repeats but may differ in a detail not shown here. Equal entries are not always repeated.

B1: HJ DNA (HJ1-HJ4) (structured_DNA)
DNA 1: AGAATCTGCCGAGAGACCGAGCAGAATTCTATGTGTTTACCAAGCGCTG
DNA 2: CAGCGCTTGGTAAACACATAGAATTCTGCTCGGTCTGAGCCGTCTAAGA
DNA 3: TCTTAGACGGCTCACTGGCTGTGGGATCCGAGCTGTCTAGAGACATCGA
DNA 4: TCGATGTCTCTAGACAGCTCGGATCCCACAGCCAGTCTCGGCAGATTCT
Consider B1, for which the binding result with RuvA and with RuvB was “binds” in each case.

B2: Thermus thermophilus RuvB (enzyme, UniProt Q5SL87 1-324, looked up)
chain: MEDLALRPKTLDEYIGQERLKQKLRVYLEAAKARKEPLEHLLLFGPPGLGKTTLAHVIAHELGVNLRVTSGPAIEKPGDLAAILANSLEEGDILFIDEIHRLSRQAEEHLYPAMEDFVMDIVIGQGPAARTIRLELPRFTLIGATTRPGLITAPLLSRFGIVEHLEYYTPEELAQGVMRDARLLGVRITEEAALEIGRRSRGTMRVAKRLFRRVRDFAQVAGEEVITRERALEALAALGLDELGLEKRDREILEVLILRFGGGPVGLATLATALSEDPGTLEEVHEPYLIRQGLLKRTPRGRVATELAYRHLGYPPPVGPLLEP
notes: RuvB, Holliday junction branch migration ATPase (AAA+), Thermus thermophilus; printed MW 35,973; Purified RuvB carried endogenous ADP (native mass spectrometry); It forms the hexamer and dodecamer only in the sample with DNA and ATPγS; also called T. thermophilus RuvB; RuvB protomer; source: E. coli BL21(DE3) RipL, purified (heat step at 55 °C, Ni-NTA, Superdex 200 gel filtration)
In general, stoichiometry N refers to the number of molecules, sites or subunits per partner or assembly. With B2, the “stoichiometry N” value in data set [1] was 6 and 12.

B3: Thermus thermophilus RuvA (natural protein, UniProt Q9F1Q3 1-191, looked up)
chain: MIRYLRGLVLKKEAGGFVLLAGGVGFFLQAPTPFLQALEEGKEVGVHTHLLLKEEGLSLYGFPDEENLALFELLLSVSGVGPKVALALLSALPPRLLARALLEGDARLLTSASGVGRRLAERIALELKGKVPPHLLAGEKVESEAAEEAVMALAALGFKEAQARAVVLDLLAQNPKARAQDLIKEALKRLR
notes: source: E. coli BL21(DE3) RipL, purified (heat step at 55 °C, Ni-NTA, gel filtration)
Consider B3, for which the “stoichiometry N” value in data set [2] was 4.
